# Legend:
# HLA-B*15:01 = assay: IEDB peptide-MHC binding, purified MHC/direct/fluorescence; filed as Kd, often an IC50 or EC50 that approximates it; ≥ and ≤ were set here for values at or beyond the usual limits of such assays
# HLA-A*29:02 = assay: as above
# HLA-B*51:01 = assay: as above
# HLA-B*15:17 = assay: as above
# HLA-A*02:19 = assay: as above
# HLA-A*02:12 = assay: as above
# HLA-B*39:01 = assay: as above
# HLA-B*27:03 = assay: as above
# HLA-B*18:01 = assay: as above
# HLA-A*03:01 = assay: as above
# HLA-A*24:03 = assay: as above
# HLA-B*46:01 = assay: as above
# HLA-A*02:01 = assay: as above
# HLA-A*26:01 = assay: as above
# HLA-B*57:01 = assay: as above
# HLA-A*02:06 = assay: as above; conditions: source organism: Vibrio vulnificus YJ016
# HLA-B*08:01 = assay: IEDB peptide-MHC binding, purified MHC/competitive/fluorescence; filed as Kd, often an IC50 or EC50 that approximates it; ≥ and ≤ were set here for values at or beyond the usual limits of such assays
# HLA-B*27:05 = assay: as above
# HLA-A*11:01 = assay: as above
# HLA-A*01:01 = assay: as above
# HLA-B*53:01 = assay: as above
# HLA-A*66:01 = assay: as above
# HLA-B*58:01 = assay: as above
# HLA-A*30:01 = assay: as above; conditions: source organism: Vibrio vulnificus YJ016
# HLA-A*30:02 = assay: as above
# HLA-A*23:01 [1] = assay: as above; conditions: source organism: Vibrio vulnificus YJ016
# HLA-B*40:01 = assay: as above
# HLA-B*44:02 = assay: as above
# HLA-B*14:02 = assay: as above
# HLA-B*07:02 = assay: as above; conditions: source organism: Vibrio vulnificus YJ016
# HLA-A*02:16 = assay: IEDB peptide-MHC binding, purified MHC/direct/fluorescence; filed as Kd, often an IC50 or EC50 that approximates it; ≥ and ≤ were set here for values at or beyond the usual limits of such assays; conditions: source organism: Brucella melitensis bv. 1 str. 16M
# HLA-A*68:02 = assay: as above; conditions: source organism: Brucella melitensis bv. 1 str. 16M
# HLA-A*02:03 = assay: as above; conditions: source organism: Brucella melitensis bv. 1 str. 16M
# HLA-A*23:01 [2] = assay: as above; conditions: source organism: Brucella melitensis bv. 1 str. 16M
# HLA-A*02:11 = assay: as above; conditions: source organism: Brucella melitensis bv. 1 str. 16M
# [3] = source organism: Vibrio vulnificus YJ016
# [4] = source organism: Brucella melitensis bv. 1 str. 16M
sequence,measurement,setting,value
SVFELSNFA,Kd,HLA-B*15:01; [3],≥ 20 µM
same,Kd,HLA-A*29:02; [3],≥ 20 µM
same,Kd,HLA-B*51:01; [3],≥ 20 µM
same,Kd,HLA-B*15:17; [3],≥ 20 µM
same,Kd,HLA-A*02:19; [3],≥ 20 µM
same,Kd,HLA-A*02:12; [3],679 nM
same,Kd,HLA-B*39:01; [3],≥ 20 µM
same,Kd,HLA-B*27:03; [3],≥ 20 µM
same,Kd,HLA-B*18:01; [3],≥ 20 µM
same,Kd,HLA-A*03:01; [3],≥ 20 µM
same,Kd,HLA-A*24:03; [3],≥ 20 µM
same,Kd,HLA-B*46:01; [3],≥ 20 µM
same,Kd,HLA-A*02:01; [3],8 nM
same,Kd,HLA-A*26:01; [3],≥ 20 µM
same,Kd,HLA-B*57:01; [3],≥ 20 µM
same,Kd,HLA-A*02:06,2 nM
same,Kd,HLA-B*08:01; [3],≥ 5 µM
same,Kd,HLA-B*27:05; [3],≥ 5 µM
same,Kd,HLA-A*11:01; [3],≥ 5 µM
same,Kd,HLA-A*01:01; [3],≥ 5 µM
same,Kd,HLA-B*53:01; [3],≥ 5 µM
same,Kd,HLA-A*66:01; [3],≥ 5 µM
same,Kd,HLA-B*58:01; [3],≥ 5 µM
same,Kd,HLA-A*30:01,≥ 5 µM
same,Kd,HLA-A*30:02; [3],≥ 5 µM
same,Kd,HLA-A*23:01 [1],≥ 5 µM
same,Kd,HLA-B*40:01; [3],≥ 5 µM
same,Kd,HLA-B*44:02; [3],≥ 5 µM
same,Kd,HLA-B*14:02; [3],≥ 5 µM
same,Kd,HLA-B*07:02,≥ 5 µM
TTRAVNMEV,Kd,HLA-B*15:01; [4],≥ 20 µM
same,Kd,HLA-A*29:02; [4],≥ 20 µM
same,Kd,HLA-B*51:01; [4],≥ 20 µM
same,Kd,HLA-B*15:17; [4],≥ 20 µM
same,Kd,HLA-A*02:16,≥ 20 µM
same,Kd,HLA-A*02:19; [4],≥ 20 µM
same,Kd,HLA-A*02:12; [4],≥ 20000 nM
same,Kd,HLA-B*39:01; [4],≥ 20 µM
same,Kd,HLA-B*27:03; [4],≥ 20 µM
same,Kd,HLA-B*18:01; [4],≥ 20 µM
same,Kd,HLA-A*03:01; [4],≥ 20 µM
same,Kd,HLA-A*24:03; [4],≥ 20 µM
same,Kd,HLA-B*46:01; [4],≥ 20 µM
same,Kd,HLA-A*02:01; [4],≥ 20000 nM
same,Kd,HLA-A*26:01; [4],≥ 20 µM
same,Kd,HLA-B*57:01; [4],≥ 20 µM
same,Kd,HLA-A*68:02,≤ 1 nM
same,Kd,HLA-A*02:03,≥ 20 µM
same,Kd,HLA-A*23:01 [2],≥ 20 µM
same,Kd,HLA-A*02:11,≥ 20 µM
same,Kd,HLA-B*08:01; [4],≥ 5 µM
same,Kd,HLA-B*27:05; [4],≥ 5 µM
same,Kd,HLA-A*11:01; [4],≥ 5 µM
same,Kd,HLA-A*01:01; [4],≥ 5 µM
same,Kd,HLA-B*53:01; [4],≥ 5 µM
same,Kd,HLA-A*66:01; [4],≥ 5 µM
same,Kd,HLA-B*58:01; [4],≥ 5 µM
same,Kd,HLA-A*30:02; [4],≥ 5 µM
same,Kd,HLA-B*40:01; [4],≥ 5 µM
same,Kd,HLA-B*44:02; [4],≥ 5 µM
same,Kd,HLA-B*14:02; [4],≥ 5 µM

# Reference: the Immune Epitope Database (IEDB)
